Patent US20180030119A1

Key:
Assay in all cases: cell-based or functional assay
[1] = substrate: F protein of palivizumab-resistant clinical RSV isolate #20, on virus (RSV clinical isolate #20), P11209
[2] = target: 42 RSV/A isolates (F protein on virus)
[3] = target: 26 RSV/B isolates (F protein on virus)

B1: AR201 (antibody, V domains shown)
VH: LVQLRESGPGLVKPSQTLSLTCSVSGASINLYDYFWGWIRQAPGRGPEWIGYISGSTYYNPSLKRRATISVDTSKSQFFLELTSVTAADTAVYYCARDVGWGPQYYYGLDVWGQGTTVTVSS
VL: DLVLTQSPGTLSLSPGERATLSCRASHSVQSTSLAWYQQKRGQAPRLLIYGGSSRVTGIPDRFSGSGSGTDFTLTISRLEPEDFAVYYCQQSDRSPPITFGQGTRLEMK
IC50 of neutralisation, infectivity assay on Hep2 cells [1]: 1710 nM
Log10 PFU/0.2 mL after 20 ug/ml antibody, plaque reduction assay on HEp-2 cells, mean (Log10 PFU/0.2 mL) [2]: -0.42
Log10 PFU/0.2 mL after 20 ug/ml antibody, plaque reduction assay on HEp-2 cells, median (Log10 PFU/0.2 mL) [2]: -0.6
Log10 PFU/0.2 mL after 20 ug/ml antibody, plaque reduction assay on HEp-2 cells, mean (Log10 PFU/0.2 mL) [3]: -0.52
Log10 PFU/0.2 mL after 20 ug/ml antibody, plaque reduction assay on HEp-2 cells, median (Log10 PFU/0.2 mL) [3]: -0.6
